Data from the Human Domainome abundance scans (Beltran et al. 2025).

B1: Receptor-interacting serine/threonine-protein kinase 2, residues 438 to 518; numbered along this chain, O43353 (parent)
chain: QWIQSKREDIVNQMTEACLNQSLDALLSRDLIMKEDYELVSTKPTRTSKVRQLLDTTDIQGEEFAKVIVQKLKDNKQMGLQ

Variants of: B1
Assay: abundance fitness (aPCA) (normalised: wild type 0, dead -1); higher = more abundant; growth selection in yeast, the domain comes from the species named
Conditions: Homo sapiens

Abundance fitness of substitutions, site by site:
Q60: M -0.188, L -0.321, W -0.745, G -0.014
F64: Q -0.156, W -0.384, I -0.269, M -0.047, T -0.142, G -0.257, C 0.112, K -0.566, A 0.131, V -0.236, L -0.295, R -0.475, S -0.212, P -0.248, D -0.17, E -0.123, Y -0.448
T47: F -0.493, V -0.153, H 0.111, D -0.152, G -0.185, P -0.228, C -0.254, R 0.049, Q -0.145, L -0.373, E 0.201, A 0.121, M -0.431, Y -0.57, S -0.061, W -0.333, N -0.286, K -0.031
T56: D -0.849, F 0.037, Y 0.046, Q -0.024, G -0.458, I 0.19, L 0.175, R -0.533, A -0.161, V 0.108, S -0.273, N -0.572, E -0.332, P -0.612, C -0.105, W 0.125, H -0.206
T57: W -0.738, F -0.392, M 0.108, P -0.04, C 0.125, E -0.082, S 0.128, L -0.002, G -0.004, H -0.268, V 0.046, D -0.28, N -0.684, Q 0.01, I 0.044, Y -0.658, A 0.045
V67: N -0.651, C -0.33, E -0.294, G -0.639, L -0.51, H -0.396, D -0.453, I 0.164, M -0.674, F -0.945, A -0.674
L53: I -0.544, N -0.845, Y -0.821, C -0.433, P -0.423, A -0.396, D -0.689, E -0.536, H -0.666, G -0.433, S -0.679, V -0.56, Q -0.567, F -0.785, T -0.417, W -0.595, K -0.366, R -0.643, M -0.517
K49: E -0.576, C -0.81, P -0.625, T -0.761, A -0.586, V -0.784, I -0.564, Q -0.786, W -0.722, D -0.389, S -0.58, Y -0.625, M -0.137, H -0.628, R -0.283
R51: L -0.254, K -0.071, H -0.518, A -0.145, V -0.273, I -0.235, D -0.517, W -0.802, M -0.354, P -0.501, G -0.407, N -0.207, Q -0.052, E -0.273, T -0.255, S -0.194, C -0.307
D58: I -0.007, N -0.141, M -0.033, F 0.001, R -0.154, E 0.107, W -0.081, V 0.041, Q 0.041, P 0.172, C 0.035, T -0.015, A 0.021, H 0.026, L -0.047, Y -0.259
E62: H -0.678, I -0.912, A -0.555, P -0.493, T -0.629, K -0.798, D -0.648, G -0.537, Y -0.913, V -0.853, S -0.627, W -1.32, Q -0.943, L -0.808, F -0.741, M -0.545
